Measurements: article PMC2120133 (The Journal of Cell Biology, 1994)

Target: Gal4 DNA-binding domain-Nup1p carboxy-terminal fusion (pSWB11) (yeast, UniProt P20676 655-1076)
Assay: two-hybrid

Chain of Gal4 DNA-binding domain-Nup1p carboxy-terminal fusion (pSWB11) (P20676 655-1076): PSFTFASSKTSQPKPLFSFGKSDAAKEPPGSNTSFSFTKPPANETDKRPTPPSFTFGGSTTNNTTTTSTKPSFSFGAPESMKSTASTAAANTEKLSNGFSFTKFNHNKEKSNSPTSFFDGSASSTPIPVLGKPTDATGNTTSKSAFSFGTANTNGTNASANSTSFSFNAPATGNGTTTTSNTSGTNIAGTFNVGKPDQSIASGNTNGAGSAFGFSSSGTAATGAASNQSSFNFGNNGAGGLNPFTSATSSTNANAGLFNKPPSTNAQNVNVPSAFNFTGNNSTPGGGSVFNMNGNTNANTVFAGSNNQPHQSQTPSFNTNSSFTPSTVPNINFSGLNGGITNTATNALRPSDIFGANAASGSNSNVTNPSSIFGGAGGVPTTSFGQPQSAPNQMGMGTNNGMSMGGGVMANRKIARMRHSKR

B1: Gal4 activation domain-Srp1p fusion (pSWB17) (domain or fragment, yeast, UniProt Q02821 30-542, looked up)
chain: DELRRRRDTQQVELRKAKRDEALAKRRNFIPPTDGADSDEEDESSVSADQQFYSQLQQELPQMTQQLNSDDMQEQLSATVKFRQILSREHRPPIDVVIQAGVVPRLVEFMRENQPEMLQLEAAWALTNIASGTSAQTKVVVDADAVPLFIQLLYTGSVEVKEQAIWALGNVAGDSTDYRDYVLQCNAMEPILGLFNSNKPSLIRTATWTLSNLCRGKKPQPDWSVVSQALPTLAKLIYSMDTETLVDACWAISYLSDGPQEAIQAVIDVRIPKRLVELLSHESTLVQTPALRAVGNIVTGNDLQTQVVINAGVLPALRLLLSSPKENIKKEACWTISNITAGNTEQIQAVIDANLIPPLVKLLEVAEYKTKKEACWAISNASSGGLQRPDIIRYLVSQGCIKPLCDLLEIADNRIIEVTLDALENILKMGEADKEARGLNINENADFIEKAGGMEKIFNCQQNENDKIYEKAYKIIETYFGEEEDAVDETMAPQNAGNTFGFGSNVNQQFNFN
B1 was tested, and the “fold increase in beta-galactosidase activity” value was over 160 fold.
